Test: Hydrodynamic size by dynamic light scattering (DLS)
Type: physicochemical
Experimental: Cell culture. Human breast cancer luciferase-overexpressing BT474 and MDA-MB-231 cells were maintained in DMEM medium (Hyclone, Thermo Scientific) supplemented with 10% fetal bovine serum (FBS, Sigma) and 1% penicillin/streptomycin (Corning) at 37° C. in a humidified atmosphere with 5% CO2.^53 • Generation of pRNA nanoparticles. The two strands of pRNA were synthesized with the DNA templates, which were amplified with overlapping primers (Sigma) by PCR methods, using a T7 promoter-controlled in vitro RNA transcription system as previously described^33 (Table 1). […] The hydrodynamic diameter and Tm value of pRNA nanoparticles were determined using dynamic light scattering and TGGE assay, respectively, as previously described.^54 The AFM imaging of the pRNA nanoparticles was performed at the University of Nebraska Medical Center imaging facility as previously reported.^55 Briefly, the pRNA nanoparticles (5 μL) were deposited on APS modified mica ^56 for a total of 2 min of incubation time. […] After washing three times with PBS, the cellular uptake of pRNAs was determined using a BD LSRFortessa™ flow cytometer. • Real-time PCR. […] The expression of MED 1, TFF1, c-Myc, cyclinD1 and MMP-9 was analyzed using GAPDH as the internal reference. • Western blot analyses. […]

B1: pRNA-HER2apt-siMED1: 3-WJ pRNA nanoparticle bearing a HER2-targeting RNA aptamer and two different MED1 siRNAs; strands p1 SEQ ID NO: 3, p2 SEQ ID NO: 4 (nucleic acid)
chain 1: GGACAGUGAAAGUGAGUCAAAGGAUCAAUCAUGGCCAAAGAUGUUACUUUGAGAGCCUU
chain 2: GGCUCUCAAAGUAACAUCUAAGGCCAUGUGUAUGUGGGGGGAGGACGAUGCGGUCUGCUGUGCUUGAUAUGCCCCAGACGACUCGCCCCCCACAUACUUUGUUGAUCCAAUGACUCACUUUCACUGUCCUU
modifications: 2'-F modification; third strand may lack entry; pRNA-HER2apt-siMED1, p1; pRNA-HER2apt-siMED1, p2
Q: With B1 as the molecule, how does the hydrodynamic size read?
A: 8.68±1.87 nm

— patent publication US11110182B2, “Multifunctional RNA nanoparticles and methods for treating cancer and therapeutic resistant cancer” (University of Cincinnati, priority 2016, dated 2021)
